Laboratory results as given in PMC11041685, “Emergence of fractal geometries in the evolution of a metabolic enzyme” (Nature, 2024).
“And” between values parts separate entries of the source, which are not always exact repeats. Equal values may be shown once.

Key:
[1] = molecular target: D147A SeCS (Synechococcus elongatus PCC 7942); experiment: mass photometry; 50 nM protein unless stated otherwise, in PBS or 20 mM Tris, 200 mM NaCl pH 7.5; masses of the complexes in solution, fraction of CS subunits in each oligomeric state
[2] = molecular target: D147A SeCS (Synechococcus elongatus PCC 7942); experiment: native MS; 200 mM ammonium acetate, positive-ion nanoelectrospray; D147A at 20 µM, D147A + L18Q at 35 µM
[3] = molecular target: D147A SeCS (Synechococcus elongatus PCC 7942); experiment: as above; remark: listed apart in the source
[4] = molecular target: H369R SeCS (Synechococcus elongatus PCC 7942); experiment: cryo-EM structure; 22.5 µM protein on Quantifoil 2/1 grids
[5] = molecular target: H369R SeCS (Synechococcus elongatus PCC 7942); experiment: mass photometry; 50 nM protein unless stated otherwise, in PBS or 20 mM Tris, 200 mM NaCl pH 7.5; masses of the complexes in solution, fraction of CS subunits in each oligomeric state
[6] = molecular target: H369R SeCS (Synechococcus elongatus PCC 7942); experiment: cryo-EM structure; 22.5 µM protein on Quantifoil 2/1 grids; remark: listed apart in the source
[7] = molecular target: H369R SeCS (Synechococcus elongatus PCC 7942); experiment: negative-stain electron microscopy; 450 nM protein on carbon-coated copper grids, 2% uranyl acetate; 2D class averages and manual particle counts
[8] = molecular target: SeCS D147A + L18Q (Synechococcus elongatus PCC 7942); experiment: mass photometry; 50 nM protein unless stated otherwise, in PBS or 20 mM Tris, 200 mM NaCl pH 7.5; masses of the complexes in solution, fraction of CS subunits in each oligomeric state
[9] = molecular target: SeCS D147A + L18Q (Synechococcus elongatus PCC 7942); experiment: native MS; 200 mM ammonium acetate, positive-ion nanoelectrospray; D147A at 20 µM, D147A + L18Q at 35 µM
[10] = molecular target: SeCS L18Q (Synechococcus elongatus PCC 7942); experiment: mass photometry; 50 nM protein unless stated otherwise, in PBS or 20 mM Tris, 200 mM NaCl pH 7.5; masses of the complexes in solution, fraction of CS subunits in each oligomeric state
[11] = molecular target: SeCS L18Q (Synechococcus elongatus PCC 7942); experiment: negative-stain electron microscopy; 450 nM protein on carbon-coated copper grids, 2% uranyl acetate; 2D class averages and manual particle counts
[12] = molecular target: SeCS L18Q (Synechococcus elongatus PCC 7942); experiment: SAXS; dilution series from the highest concentration, 25 mM Tris-HCl pH 7.5, 200 mM NaCl, 20 °C; Rg by Guinier approximation against Rg of models of the 6mer, 18mer and 54mer
[13] = molecular target: citrate synthase from Cyanobium sp. PCC7001 (Cyanobium sp. PCC7001); experiment: mass photometry; 50 nM protein unless stated otherwise, in PBS or 20 mM Tris, 200 mM NaCl pH 7.5; masses of the complexes in solution, fraction of CS subunits in each oligomeric state
[14] = molecular target: citrate synthase from Planktothrix mougeotii (Planktothrix mougeotii); experiment: as above
[15] = molecular target: citrate synthase from Synechococcus elongatus PCC 7942 (Synechococcus elongatus PCC 7942); experiment: mass photometry; pH titration, 20 mM Tris, 200 mM NaCl pH 7–9.5, 50 nM protein
[16] = molecular target: citrate synthase from Synechococcus elongatus PCC 7942 (Synechococcus elongatus PCC 7942); experiment: cryo-EM structure; 22.5 µM protein on Quantifoil 2/1 grids
[17] = molecular target: citrate synthase from Synechococcus elongatus PCC 7942 (Synechococcus elongatus PCC 7942); experiment: mass photometry; 50 nM protein unless stated otherwise, in PBS or 20 mM Tris, 200 mM NaCl pH 7.5; masses of the complexes in solution, fraction of CS subunits in each oligomeric state
[18] = molecular target: citrate synthase from Synechococcus elongatus PCC 7942 (Synechococcus elongatus PCC 7942); experiment: crystal structure; 250 µM protein incubated with 5 mM acetyl-CoA; 0.1 M citrate pH 5.5, 2.0 M ammonium sulfate, 20 °C; citrate-bound
[19] = molecular target: citrate synthase from Synechococcus elongatus PCC 7942 (Synechococcus elongatus PCC 7942); experiment: mass photometry; with acetyl-CoA, oxaloacetate or citrate: protein incubated 10 min with the substrate, same substrate concentration in the buffer; cys4 after oxidation
[20] = molecular target: citrate synthase from Synechococcus elongatus PCC 7942 (Synechococcus elongatus PCC 7942); experiment: negative-stain electron microscopy; 450 nM protein on carbon-coated copper grids, 2% uranyl acetate; 2D class averages and manual particle counts
[21] = molecular target: citrate synthase from Synechococcus elongatus PCC 7942 (Synechococcus elongatus PCC 7942); experiment: SAXS; dilution series from the highest concentration, 25 mM Tris-HCl pH 7.5, 200 mM NaCl, 20 °C; Rg by Guinier approximation against Rg of models of the 6mer, 18mer and 54mer
[22] = molecular target: Δ2–6 SeCS (Synechococcus elongatus PCC 7942); experiment: cryo-EM structure; 22.5 µM protein on Quantifoil 2/1 grids
[23] = molecular target: Δ2–6 SeCS (Synechococcus elongatus PCC 7942); experiment: mass photometry; 50 nM protein unless stated otherwise, in PBS or 20 mM Tris, 200 mM NaCl pH 7.5; masses of the complexes in solution, fraction of CS subunits in each oligomeric state
[24] = substrate: CC(=O)SCCNC(=O)CCNC(=O)[C@H](O)C(C)(C)COP(=O)(O)OP(=O)(O)OC[C@H]1O[C@@H](n2cnc3c(N)ncnc32)[C@H](O)[C@@H]1OP(=O)(O)O; experiment: purified protein; type: biochemical, Synechococcus elongatus; conditions: 1 mM oxaloacetate, 50 mM Tris pH 7.5, 10 mM KCl, 25 nM protein, 25 °C
[25] = substrate: O=C(O)CC(=O)C(=O)O; experiment: purified protein; type: biochemical, Synechococcus elongatus; conditions: 0.5 mM acetyl-CoA, 50 mM Tris pH 7.5, 10 mM KCl, 25 nM protein, 25 °C

Q: What does the source list for D147A SeCS (enzyme)?
A: stoichiometry N [1]: 2 subunits; stoichiometry N [2]: > 8 subunits; stoichiometry N [3]: 4 subunits and 6 subunits

Q: H369R SeCS (enzyme) was tested. Which stoichiometry N [4] did it give?
A: 54 subunits

Q: And the stoichiometry N [5]?
A: 18 subunits

Q: And the stoichiometry N [6]?
A: 18 subunits

Q: And the stoichiometry N [7]?
A: 18 subunits and 54 subunits

Q: Which results are given for SeCS D147A + L18Q (enzyme)?
A: stoichiometry N [8]: 2 subunits; stoichiometry N [9]: 2 subunits and 6 subunits

Q: For SeCS L18Q (enzyme), which stoichiometry N [10] is on record?
A: 6 subunits

Q: And the stoichiometry N [11]?
A: 6 subunits

Q: And the stoichiometry N [12]?
A: 6 subunits

Q: With “citrate synthase from Cyanobium sp. PCC7001 (enzyme)” as the molecule, how does the stoichiometry N [13] read?
A: 2 subunits

Q: “citrate synthase from Planktothrix mougeotii (enzyme)” was tested. Which stoichiometry N [14] did it give?
A: 18 subunits

Q: “citrate synthase from Synechococcus elongatus PCC 7942 (enzyme)” was tested. Which stoichiometry N [15] did it give?
A: 6 subunits

Q: What about the stoichiometry N [16] of the same molecule?
A: 18 subunits

Q: What about the stoichiometry N [17] of the same molecule?
A: 18 subunits

Q: And the stoichiometry N [18]?
A: 6 subunits

Q: And the stoichiometry N [19]?
A: 6 subunits

Q: And the stoichiometry N [20]?
A: 18 subunits and 36 subunits and 54 subunits

Q: And the stoichiometry N [21]?
A: > 54 subunits

Q: How did the stoichiometry N [22] turn out when Δ2–6 SeCS (enzyme) was run?
A: 6 subunits

Q: And the stoichiometry N [23]?
A: 6 subunits

B1: SeCS (CS of S. elongatus PCC 7942) (Synechococcus elongatus PCC 7942 = FACHB-805) (protein)
chain: MTAVSEFRPGLEGVPATLSSISFVDGQRGVLEYRGISIEQLAQQSSFLETAYLLIWGHLPTQQELTEFEHEIRYHRRIKFRIRDMMKCFPDSGHPMDALQASAAALGLFYSRRALDDPEYIRAAVVRLLAKIPTMVAAFQLIRKGNDPIQPRDELDYAANFLYMLTEREPDPVAARIFDICLTLHAEHTINASTFSAMVTASTLTDPYAVVASAVGTLAGPLHGGANEEVLDMLEAIGSVENVEPYLDHCIATKTRIMGFGHRVYKVKDPRAVILQNLAEQLFDIFGHDPYYEIAVAVEKAAAERLSHKGIYPNVDFYSGLVYRKLGIPSDLFTPVFAIARVAGWLAHWKEQLNENRIFRPTQIYTGSHNLDYTPIADRDLAIESD
notes: full length, C-terminal His tag (LE-HHHHHH) kept, E. coli BL21 (DE3); 18mer, active as homohexamer
Q: How did the Km [24] turn out when B1 was run?
A: 91.8 ± 9.2 µM

Q: And the kcat [24]?
A: 24.2 ± 1.3 s⁻¹

Q: And the Km [25]?
A: 65.6 ± 10.6 µM

Q: And the kcat [25]?
A: 19.5 ± 1.7 s⁻¹
